Reference: the supplement of paper PMC5998384

Tested on: HeLa Kyoto
Assay: melting temperature (median over replicates), in situ; higher = more thermally stable
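Also: HeLa Kyoto cells synchronized by double thymidine or nocodazole block, proteins quantified by TMT10plex mass spectrometry, three independent biological replicates.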

Sequence of UBE2V1 (chain, as listed by the source): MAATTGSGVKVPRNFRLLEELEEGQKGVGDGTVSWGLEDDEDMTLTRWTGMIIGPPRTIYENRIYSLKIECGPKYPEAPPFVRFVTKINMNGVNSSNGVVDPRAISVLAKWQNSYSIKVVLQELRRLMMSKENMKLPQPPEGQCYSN

Row | Substance | melting temperature (cell cycle stage: mitosis) [°C] | melting temperature (cell cycle stage: G1/S) [°C]
1 | MGGCVGAQHDSSGSLNENSEGTGVALGRNQPLKKEKPKWKSDYPMTDGQLRSKRDEFWDTAPAFEGRKEIWDALKAAAHAFESNDHELAQAIIDGANITLPHGALTECYDELGNRYQLPVYCLAPPINMIEEKSDIETLDIPEPPPNSGYECQLRLRLSTGKDLKLVVRSTDTVFHMKRRLHAAEGVEPGSQRWFFSGRPLTDKMKFEELKIPKDYVVQVIVSQPVQNPTPVEN [UBTD2] | 53.7 | 
2 | MALNGAEVDDFSWEPPTEAETKVLQARRERQDRISRLMGDYLLRGYRMLGETCADCGTILLQDKQRKIYCVACQELDSDVDKDNPALNAQAALSQAREHQLASASELPLGSRPAPQPPVPRPEHCEGAAAGLKAAQGPPAPAVPPNTDVMACTQTALLQKLTWASAELGSSTSLETSIQLCGLIRACAEALRSLQQLQH [SSSCA1] | 53.5 | 53.3
3 | MLGSRAAGFARGLRAVALAWLPGWRGRSFALARAAGAPHGGDLQPPACPEPRGRQLSLSAAAVVDSAPRPLQPYLRLMRLDKPIGTWLLYLPCTWSIGLAAEPGCFPDWYMLSLFGTGAILMRGAGCTINDMWDQDYDKKVTRTANRPIAAGDISTFQSFVFLGGQLTLALGVLLCLNYYSIALGAGSLLLVITYPLMKRISYWPQLALGLTFNWGALLGWSAIKGSCDPSVCLPLYFSGVMWTLIYDTIYAHQDKRDDVLIGLKSTALRFGENTKPWLSGFSVAMLGALSLVGVNSGQTAPYYAALGAVGAHLTHQIYTLDIHRPEDCWNKFISNRTLGLIVFLGIVLGNLWKEKKTDKTKKGIENKIEN [COQ2] |  | 55.1
4 | MNQENPPPYPGPGPTAPYPPYPPQPMGPGPMGGPYPPPQGYPYQGYPQYGWQGGPQEPPKTTVYVVEDQRRDELGPSTCLTACWTALCCCCLWDMLT [CYSTM1] | 52.8 | 59
5 | MQPPPPGPLGDCLRDWEDLQQDFQNIQETHRLYRLKLEELTKLQNNCTSSITRQKKRLQELALALKKCKPSLPAEAEGAAQELENQMKERQGLFFDMEAYLPKKNGLYLSLVLGNVNVTLLSKQAKFAYKDEYEKFKLYLTIILILISFTCRFLLNSRVTDAAFNFLLVWYYCTLTIRESILINNGSRIKGWWVFHHYVSTFLSGVMLTWPDGLMYQKFRNQFLSFSMYQSFVQFLQYYYQSGCLYRLRALGERHTMDLTVEGFQSWMWRGLTFLLPFLFFGHFWQLFNALTLFNLAQDPQCKEWQVLMCGFPFLLLFLGNFFTTLRVVHHKFHSQRHGSKKD [TMEM120A] | 53.4 | 54.2
6 | MSPLSAARAALRVYAVGAAVILAQLLRRCRGGFLEPVFPPRPDRVAIVTGGTDGIGYSTAKHLARLGMHVIIAGNNDSKAKQVVSKIKEETLNDKVEFLYCDLASMTSIRQFVQKFKMKKIPLHVLINNAGVMMVPQRKTRDGFEEHFGLNYLGHFLLTNLLLDTLKESGSPGHSARVVTVSSATHYVAELNMDDLQSSACYSPHAAYAQSKLALVLFTYHLQRLLAAEGSHVTANVVDPGVVNTDVYKHVFWATRLAKKLLGWLLFKTPDEGAWTSIYAAVTPELEGVGGHYLYNEKETKSLHVTYNQKLQQQLWSKSCEMTGVLDVTL [DHRSX] | 52.9 | 
7 | MAGPAAAFRRLGALSGAAALGFASYGAHGAQFPDAYGKELFDKANKHHFLHSLALLGVPHCRKPLWAGLLLASGTTLFCTSFYYQALSGDPSIQTLAPAGGTLLLLGWLALAL [TMEM256] | 56.6 | 
8 | MSRFFTTGSDSESESSLSGEELVTKPVGGNYGKQPLLLSEDEEDTKRVVRSAKDKRFEELTNLIRTIRNAMKIRDVTKCLEEFELLGKAYGKAKSIVDKEGVPRFYIRILADLEDYLNELWEDKEGKKKMNKNNAKALSTLRQKIRKYNRDFESHITSYKQNPEQSADEDAEKNEEDSEGSSDEDEDEDGVSAATFLKKKSEAPSGESRKFLKKMDDEDEDSEDSEDDEDWDTGSTSSDSDSEEEEGKQTALASRFLKKAPTTDEDKKAAEKKREDKAKKKHDRKSKRLDEEEEEDNEGGEWERVRGGVPLVKEKPKMFAKGTEITHAVVIKKLNEILQARGKKGTDRAAQIELLQLLVQIAAENNLGEGVIVKIKFNIIASLYDYNPNLATYMKPEMWGKCLDCINELMDILFANPNIFVGENILEESENLHNADQPLRVRGCILTLVERMDEEFTKIMQNTDPHSQEYVEHLKDEAQVCAIIERVQRYLEEKGTTEEVCRIYLLRILHTYYKFDYKAHQRQLTPPEGSSKSEQDQAENEGEDSAVLMERLCKYIYAKDRTDRIRTCAILCHIYHHALHSRWYQARDLMLMSHLQDNIQHADPPVQILYNRTMVQLGICAFRQGLTKDAHNALLDIQSSGRAKELLGQGLLLRSLQERNQEQEKVERRRQVPFHLHINLELLECVYLVSAMLLEIPYMAAHESDARRRMISKQFHHQLRVGERQPLLGPPESMREHVVAASKAMKMGDWKTCHSFIINEKMNGKVWDLFPEADKVRTMLVRKIQEESLRTYLFTYSSVYDSISMETLSDMFELDLPTVHSIISKMIINEELMASLDQPTQTVVMHRTEPTAQQNLALQLAEKLGSLVENNERVFDHKQGTYGGYFRDQKDGYRKNEGYMRRGGYRQQQSQTAY [EIF3CL] | 48.9 | 49
9 | UBE2V1 |  | 54.2
10 | MAIFRQLSLGAKATLAAVTVFVSMIASRSYLAESLELRAWRWLLRLQLALFVNSLLLIGSLYIWRSTVSNLCHSPAAESTCFQLWKVVVLAFLALAHSSFFTMFFLVAEEPYLFSLAAYSCLGAYIIMLFFLFILSGMEQAYQLLAWRSGRVVGSLEKTRKLVLRPALAVGVTAVLSVAGILNAAQPPAVKTVEVPIHQLPASMNNLKIVLLSDIHLGPTVGRTKMEMFVRMVNVLEPDITVIVGDLSDSEASVLRTAVAPLGQLHSHLGAYFVTGNHEYYTSDVSNWFALLESLHVQPLHNENVKISATRAQRGGGGSGSGSEDEDWICLAGVDDIEADILHYSGHGMDLDKALEGCSPDHTIILLAHQPLAAKRALQARPDINLILSGHTHAGQIFPLNVAAYLLNPFFAGLYQVAQATFVYVSPGTAYYGIPMRLGSRAEITELILQRSP [TMPPE] | 53.6 | 53.6
11 | TPK1 | 55.6 | 56.3
12 | MRRAGLGEGVPPGNYGNYGYANSGYSACEEENERLTESLRSKVTAIKSLSIEIGHEVKTQNKLLAEMDSQFDSTTGFLGKTMGKLKILSRGSQTKLLCYMMLFSLFVFFIIYWIIKLR [BET1] | 54.9 | 54.7
13 | MGRLLRAARLPPLLSPLLLLLVGGAFLGACVAGSDEPGPEGLTSTSLLDLLLPTGLEPLDSEEPSETMGLGAGLGAPGSGFPSEENEESRILQPPQYFWEEEEELNDSSLDLGPTADYVFPDLTEKAGSIEDTSQAQELPNLPSPLPKMNLVEPPWHMPPREEEEEEEEEEEREKEEVEKQEEEEEEELLPVNGSQEEAKPQVRDFSLTSSSQTPGATKSRHEDSGDQASSGVEVESSMGPSLLLPSVTPTTVTPGDQDSTSQEAEATVLPAAGLGVEFEAPQEASEEATAGAAGLSGQHEEVPALPSFPQTTAPSGAEHPDEDPLGSRTSASSPLAPGDMELTPSSATLGQEDLNQQLLEGQAAEAQSRIPWDSTQVICKDWSNLAGKNYIILNMTENIDCEVFRQHRGPQLLALVEEVLPRHGSGHHGAWHISLSKPSEKEQHLLMTLVGEQGVVPTQDVLSMLGDIRRSLEEIGIQNYSTTSSCQARASQVRSDYGTLFVVLVVIGAICIIIIALGLLYNCWQRRLPKLKHVSHGEELRFVENGCHDNPTLDVASDSQSEMQEKHPSLNGGGALNGPGSWGALMGGKRDPEDSDVFEEDTHL [PODXL2] |  | 54
14 | MDCEVNNGSSLRDECITNLLVFGFLQSCSDNSFRRELDALGHELPVLAPQWEGYDELQTDGNRSSHSRLGRIEADSESQEDIIRNIARHLAQVGDSMDRSIPPGLVNGLALQLRNTSRSEEDRNRDLATALEQLLQAYPRDMEKEKTMLVLALLLAKKVASHTPSLLRDVFHTTVNFINQNLRTYVRSLARNGMD [BID] | 55.5 | 52.8
15 | MTVKTEAAKGTLTYSRMRGMVAILIAFMKQRRMGLNDFIQKIANNSYACKHPEVQSILKISQPQEPELMNANPSPPPSPSQQINLGPSSNPHAKPSDFHFLKVIGKGSFGKVLLARHKAEEVFYAVKVLQKKAILKKKEEKHIMSERNVLLKNVKHPFLVGLHFSFQTADKLYFVLDYINGGELFYHLQRERCFLEPRARFYAAEIASALGYLHSLNIVYRDLKPENILLDSQGHIVLTDFGLCKENIEHNSTTSTFCGTPEYLAPEVLHKQPYDRTVDWWCLGAVLYEMLYGLPPFYSRNTAEMYDNILNKPLQLKPNITNSARHLLEGLLQKDRTKRLGAKDDFMEIKSHVFFSLINWDDLINKKITPPFNPNVSGPNDLRHFDPEFTEEPVPNSIGKSPDSVLVTASVKEAAEAFLGFSYAPPTDSFL [SGK1] | 48.3 | 
16 | MGFIFSKSMNESMKNQKEFMLMNARLQLERQLIMQSEMRERQMAMQIAWSREFLKYFGTFFGLAAISLTAGAIKKKKPAFLVPIVPLSFILTYQYDLGYGTLLERMKGEAEDILETEKSKLQLPRGMITFESIEKARKEQSRFFIDK [PLGRKT] | 55.5 | 56.5
17 | MCVRSCFQSPRLQWVWRTAFLKHTQRRHQGSHRWTHLGGSTYRAVIFDMGGVLIPSPGRVAAEWEVQNRIPSGTILKALMEGGENGPWMRFMRAEITAEGFLREFGRLCSEMLKTSVPVDSFFSLLTSERVAKQFPVMTEAITQIRAKGLQTAVLSNNFYLPNQKSFLPLDRKQFDVIVESCMEGICKPDPRIYKLCLEQLGLQPSESIFLDDLGTNLKEAARLGIHTIKVNDPETAVKELEALLGFTLRVGVPNTRPVKKTMEIPKDSLQKYLKDLLGIQTTGPLELLQFDHGQSNPTYYIRLANRDLVLRKKPPGTLLPSAHAIEREFRIMKALANAGVPVPNVLDLCEDSSVIGTPFYVMEYCPGLIYKDPSLPGLEPSHRRAIYTAMNTVLCKIHSVDLQAVGLEDYGKQGDYIPRQVRTWVKQYRASETSTIPAMERLIEWLPLHLPRQQRTTVVHGDFRLDNLVFHPEEPEVLAVLDWELSTLGDPLADVAYSCLAHYLPSSFPVLRGINDCDLTQLGIPAAEEYFRMYCLQMGLPPTENWNFYMAFSFFRVAAILQGVYKRSLTGQASSTYAEQTGKLTEFVSNLAWDFAVKEGFRVFKEMPFTNPLTRSYHTWARPQSQWCPTGSRSYSSVPEASPAHTSRGGLVISPESLSPPVRELYHRLKHFMEQRVYPAEPELQSHQASAARWSPSPLIEDLKEKAKAEGLWNLFLPLEADPEKKYGAGLTNVEYAHLCELMGTSLYAPEVCNCSAPDTGNMELLVRYGTEAQKARWLIPLLEGKARSCFAMTEPQVASSDATNIEASIREEDSFYVINGHKWWITGILDPRCQLCVFMGKTDPHAPRHRQQSVLLVPMDTPGIKIIRPLTVYGLEDAPGGHGEVRFEHVRVPKENMVLGPGRGFEIAQGRLGPGRIHHCMRLIGFSERALALMKARVKSRLAFGKPLVEQGTVLADIAQSRVEIEQARLLVLRAAHLMDLAGNKAAALDIAMIKMVAPSMASRVIDRAIQAFGAAGLSSDYPLAQFFTWARALRFADGPDEVHRATVAKLELKHRI [ACAD10] | 50.7 | 
18 | MAAGQNGHEEWVGSAYLFVESSLDKVVLSDAYAHPQQKVAVYRALQAALAESGGSPDVLQMLKIHRSDPQLIVQLRFCGRQPCGRFLRAYREGALRAALQRSLAAALAQHSVPLQLELRAGAERLDALLADEERCLSCILAQQPDRLRDEELAELEDALRNLKCGSGARGGDGEVASAPLQPPVPSLSEVKPPPPPPPAQTFLFQGQPVVNRPLSLKDQQTFARSVGLKWRKVGRSLQRGCRALRDPALDSLAYEYEREGLYEQAFQLLRRFVQAEGRRATLQRLVEALEENELTSLAEDLLGLTDPNGGLA [TRADD] |  | 49.9
19 | MSSKRTKTKTKKRPQRATSNVFAMFDQSQIQEFKEAFNMIDQNRDGFIDKEDLHDMLASLGKNPTDEYLDAMMNEAPGPINFTMFLTMFGEKLNGTDPEDVIRNAFACFDEEATGTIQEDYLRELLTTMGDRFTDEEVDELYREAPIDKKGNFNYIEFTRILKHGAKDKDD [MYL12A] | 52.7 | 54
